From publication doi:10.1101/2023.12.20.572361

Assays:
[1] = EDL CSA from mass and fibre length; settings: glycan lost; control: WT mice
[2] = EDL eccentric contraction protocol; settings: glycan lost; control: WT mice
[3] = H&E and immunofluorescence of skeletal muscle; settings: glycan lost; control: WT mice
[4] = homozygous birth rate from heterozygous crosses; settings: glycan lost; control: expected Mendelian ratio
[5] = EDL isometric tetanic and specific force in vitro; settings: glycan lost; control: WT mice
[6] = forelimb grip strength, AAV rescue of DAG1 KO; settings: glycan lost; control: AAV WT DAG1

Protein | other: muscle cross-sectional area [1] | other: susceptibility to contraction-induced injury [2] | other: skeletal muscle histopathology [3] | other: embryonic viability, other: homozygous birth rate [4] | other: muscle contractile force [5] | other: rescue of grip strength [6]
dystroglycan (mDag1): T315A/T317A (protein) parent chain: MSVDNWLLHPLWGQTFLLLLSVAVAQAHWPSEPSEAVRDWKNQLEASMHSVLSDFQEAVPTVVGIPDGTAVVGRSFRVSIPTDLIASSGEIIKVSAAGKEALPSWLHWDPHSHILEGLPLDTDKGVHYISVSAARLGANGSHVPQTSSVFSIEVYPEDHNEPQSVRAASSDPGEVVPSACAADEPVTVLTVILDADLTKMTPKQRIDLLNRMQSFSEVELHNMKLVPVVNNRLFDMSAFMAGPGNAKKVVENGALLSWKLGCSLNQNSVPDIRGVETPAREGAMSAQLGYPVVGWHIANKKPTLPKRLRRQIHATPTPVTAIGPPTTAIQEPPSRIVPTPTSPAIAPPTETMAPPVRDPVPGKPTVTIRTRGAIIQTPTLGPIQPTRVSEAGTTVPGQIRPTLTIPGYVEPTAVITPPTTTTKKPRVSTPKPATPSTDSSTTTTRRPTKKPRTPRPVPRVTTKAPITRLETASPPTRIRTTTSGVPRGGEPNQRPELKNHIDRVDAWVGTYFEVKIPSDTFYDNEDTTTDKLKLTLKLREQQLVGEKSWVQFNSNSQLMYGLPDSSHVGKHEYFMHATDKGGLSAVDAFEIHVHKRPQGDKAPARFKARLAGDPAPVVNDIHKKIALVKKLAFAFGDRNCSSITLQNITRGSIVVEWTNNTLPLEPCPKEQIIGLSRRIADENGKPRPAFSNALEPDFKALSIAVTGSGSCRHLQFIPVAPPSPGSSAAPATEVPDRDPEKSSEDDVYLHTVIPAVVVAAILLIAGIIAMICYRKKRKGKLTLEDQATFIKKGVPIIFADELDDSKPPPSSSMPLILQEEKAPLPPPEYPNQSMPETTPLNQDTVGEYTPLRDEDPNAPPYQPPPPFTAPMEGKGSRPKNMTPYRSPPPYVPP | changes | no change | no change | 10% | no change | 
dystroglycan (mDag1): AAV 4X mutant DG (protein) parent chain: MSVDNWLLHPLWGQTFLLLLSVAVAQAHWPSEPSEAVRDWKNQLEASMHSVLSDFQEAVPTVVGIPDGTAVVGRSFRVSIPTDLIASSGEIIKVSAAGKEALPSWLHWDPHSHILEGLPLDTDKGVHYISVSAARLGANGSHVPQTSSVFSIEVYPEDHNEPQSVRAASSDPGEVVPSACAADEPVTVLTVILDADLTKMTPKQRIDLLNRMQSFSEVELHNMKLVPVVNNRLFDMSAFMAGPGNAKKVVENGALLSWKLGCSLNQNSVPDIRGVETPAREGAMSAQLGYPVVGWHIANKKPTLPKRLRRQIHATPTPVTAIGPPTTAIQEPPSRIVPTPTSPAIAPPTETMAPPVRDPVPGKPTVTIRTRGAIIQTPTLGPIQPTRVSEAGTTVPGQIRPTLTIPGYVEPTAVITPPTTTTKKPRVSTPKPATPSTDSSTTTTRRPTKKPRTPRPVPRVTTKAPITRLETASPPTRIRTTTSGVPRGGEPNQRPELKNHIDRVDAWVGTYFEVKIPSDTFYDNEDTTTDKLKLTLKLREQQLVGEKSWVQFNSNSQLMYGLPDSSHVGKHEYFMHATDKGGLSAVDAFEIHVHKRPQGDKAPARFKARLAGDPAPVVNDIHKKIALVKKLAFAFGDRNCSSITLQNITRGSIVVEWTNNTLPLEPCPKEQIIGLSRRIADENGKPRPAFSNALEPDFKALSIAVTGSGSCRHLQFIPVAPPSPGSSAAPATEVPDRDPEKSSEDDVYLHTVIPAVVVAAILLIAGIIAMICYRKKRKGKLTLEDQATFIKKGVPIIFADELDDSKPPPSSSMPLILQEEKAPLPPPEYPNQSMPETTPLNQDTVGEYTPLRDEDPNAPPYQPPPPFTAPMEGKGSRPKNMTPYRSPPPYVPP |  |  |  |  |  | abolishes
dystroglycan (mDag1): T377A/T379A (protein) parent chain: MSVDNWLLHPLWGQTFLLLLSVAVAQAHWPSEPSEAVRDWKNQLEASMHSVLSDFQEAVPTVVGIPDGTAVVGRSFRVSIPTDLIASSGEIIKVSAAGKEALPSWLHWDPHSHILEGLPLDTDKGVHYISVSAARLGANGSHVPQTSSVFSIEVYPEDHNEPQSVRAASSDPGEVVPSACAADEPVTVLTVILDADLTKMTPKQRIDLLNRMQSFSEVELHNMKLVPVVNNRLFDMSAFMAGPGNAKKVVENGALLSWKLGCSLNQNSVPDIRGVETPAREGAMSAQLGYPVVGWHIANKKPTLPKRLRRQIHATPTPVTAIGPPTTAIQEPPSRIVPTPTSPAIAPPTETMAPPVRDPVPGKPTVTIRTRGAIIQTPTLGPIQPTRVSEAGTTVPGQIRPTLTIPGYVEPTAVITPPTTTTKKPRVSTPKPATPSTDSSTTTTRRPTKKPRTPRPVPRVTTKAPITRLETASPPTRIRTTTSGVPRGGEPNQRPELKNHIDRVDAWVGTYFEVKIPSDTFYDNEDTTTDKLKLTLKLREQQLVGEKSWVQFNSNSQLMYGLPDSSHVGKHEYFMHATDKGGLSAVDAFEIHVHKRPQGDKAPARFKARLAGDPAPVVNDIHKKIALVKKLAFAFGDRNCSSITLQNITRGSIVVEWTNNTLPLEPCPKEQIIGLSRRIADENGKPRPAFSNALEPDFKALSIAVTGSGSCRHLQFIPVAPPSPGSSAAPATEVPDRDPEKSSEDDVYLHTVIPAVVVAAILLIAGIIAMICYRKKRKGKLTLEDQATFIKKGVPIIFADELDDSKPPPSSSMPLILQEEKAPLPPPEYPNQSMPETTPLNQDTVGEYTPLRDEDPNAPPYQPPPPFTAPMEGKGSRPKNMTPYRSPPPYVPP | no change | no change | no change | 22% | no change | 
dystroglycan (mDag1): AAV T315A/T317A DAG1 (protein) parent chain: MSVDNWLLHPLWGQTFLLLLSVAVAQAHWPSEPSEAVRDWKNQLEASMHSVLSDFQEAVPTVVGIPDGTAVVGRSFRVSIPTDLIASSGEIIKVSAAGKEALPSWLHWDPHSHILEGLPLDTDKGVHYISVSAARLGANGSHVPQTSSVFSIEVYPEDHNEPQSVRAASSDPGEVVPSACAADEPVTVLTVILDADLTKMTPKQRIDLLNRMQSFSEVELHNMKLVPVVNNRLFDMSAFMAGPGNAKKVVENGALLSWKLGCSLNQNSVPDIRGVETPAREGAMSAQLGYPVVGWHIANKKPTLPKRLRRQIHATPTPVTAIGPPTTAIQEPPSRIVPTPTSPAIAPPTETMAPPVRDPVPGKPTVTIRTRGAIIQTPTLGPIQPTRVSEAGTTVPGQIRPTLTIPGYVEPTAVITPPTTTTKKPRVSTPKPATPSTDSSTTTTRRPTKKPRTPRPVPRVTTKAPITRLETASPPTRIRTTTSGVPRGGEPNQRPELKNHIDRVDAWVGTYFEVKIPSDTFYDNEDTTTDKLKLTLKLREQQLVGEKSWVQFNSNSQLMYGLPDSSHVGKHEYFMHATDKGGLSAVDAFEIHVHKRPQGDKAPARFKARLAGDPAPVVNDIHKKIALVKKLAFAFGDRNCSSITLQNITRGSIVVEWTNNTLPLEPCPKEQIIGLSRRIADENGKPRPAFSNALEPDFKALSIAVTGSGSCRHLQFIPVAPPSPGSSAAPATEVPDRDPEKSSEDDVYLHTVIPAVVVAAILLIAGIIAMICYRKKRKGKLTLEDQATFIKKGVPIIFADELDDSKPPPSSSMPLILQEEKAPLPPPEYPNQSMPETTPLNQDTVGEYTPLRDEDPNAPPYQPPPPFTAPMEGKGSRPKNMTPYRSPPPYVPP |  |  |  |  |  | no change
dystroglycan (mDag1): 4X mut. (protein) parent chain: MSVDNWLLHPLWGQTFLLLLSVAVAQAHWPSEPSEAVRDWKNQLEASMHSVLSDFQEAVPTVVGIPDGTAVVGRSFRVSIPTDLIASSGEIIKVSAAGKEALPSWLHWDPHSHILEGLPLDTDKGVHYISVSAARLGANGSHVPQTSSVFSIEVYPEDHNEPQSVRAASSDPGEVVPSACAADEPVTVLTVILDADLTKMTPKQRIDLLNRMQSFSEVELHNMKLVPVVNNRLFDMSAFMAGPGNAKKVVENGALLSWKLGCSLNQNSVPDIRGVETPAREGAMSAQLGYPVVGWHIANKKPTLPKRLRRQIHATPTPVTAIGPPTTAIQEPPSRIVPTPTSPAIAPPTETMAPPVRDPVPGKPTVTIRTRGAIIQTPTLGPIQPTRVSEAGTTVPGQIRPTLTIPGYVEPTAVITPPTTTTKKPRVSTPKPATPSTDSSTTTTRRPTKKPRTPRPVPRVTTKAPITRLETASPPTRIRTTTSGVPRGGEPNQRPELKNHIDRVDAWVGTYFEVKIPSDTFYDNEDTTTDKLKLTLKLREQQLVGEKSWVQFNSNSQLMYGLPDSSHVGKHEYFMHATDKGGLSAVDAFEIHVHKRPQGDKAPARFKARLAGDPAPVVNDIHKKIALVKKLAFAFGDRNCSSITLQNITRGSIVVEWTNNTLPLEPCPKEQIIGLSRRIADENGKPRPAFSNALEPDFKALSIAVTGSGSCRHLQFIPVAPPSPGSSAAPATEVPDRDPEKSSEDDVYLHTVIPAVVVAAILLIAGIIAMICYRKKRKGKLTLEDQATFIKKGVPIIFADELDDSKPPPSSSMPLILQEEKAPLPPPEYPNQSMPETTPLNQDTVGEYTPLRDEDPNAPPYQPPPPFTAPMEGKGSRPKNMTPYRSPPPYVPP |  |  |  | abolishes |  | 
dystroglycan (mDag1): 4X mut. (floxed WT allele removed by Pax7-Cre or AAV-CMV-Cre) (protein) parent chain: MSVDNWLLHPLWGQTFLLLLSVAVAQAHWPSEPSEAVRDWKNQLEASMHSVLSDFQEAVPTVVGIPDGTAVVGRSFRVSIPTDLIASSGEIIKVSAAGKEALPSWLHWDPHSHILEGLPLDTDKGVHYISVSAARLGANGSHVPQTSSVFSIEVYPEDHNEPQSVRAASSDPGEVVPSACAADEPVTVLTVILDADLTKMTPKQRIDLLNRMQSFSEVELHNMKLVPVVNNRLFDMSAFMAGPGNAKKVVENGALLSWKLGCSLNQNSVPDIRGVETPAREGAMSAQLGYPVVGWHIANKKPTLPKRLRRQIHATPTPVTAIGPPTTAIQEPPSRIVPTPTSPAIAPPTETMAPPVRDPVPGKPTVTIRTRGAIIQTPTLGPIQPTRVSEAGTTVPGQIRPTLTIPGYVEPTAVITPPTTTTKKPRVSTPKPATPSTDSSTTTTRRPTKKPRTPRPVPRVTTKAPITRLETASPPTRIRTTTSGVPRGGEPNQRPELKNHIDRVDAWVGTYFEVKIPSDTFYDNEDTTTDKLKLTLKLREQQLVGEKSWVQFNSNSQLMYGLPDSSHVGKHEYFMHATDKGGLSAVDAFEIHVHKRPQGDKAPARFKARLAGDPAPVVNDIHKKIALVKKLAFAFGDRNCSSITLQNITRGSIVVEWTNNTLPLEPCPKEQIIGLSRRIADENGKPRPAFSNALEPDFKALSIAVTGSGSCRHLQFIPVAPPSPGSSAAPATEVPDRDPEKSSEDDVYLHTVIPAVVVAAILLIAGIIAMICYRKKRKGKLTLEDQATFIKKGVPIIFADELDDSKPPPSSSMPLILQEEKAPLPPPEYPNQSMPETTPLNQDTVGEYTPLRDEDPNAPPYQPPPPFTAPMEGKGSRPKNMTPYRSPPPYVPP |  |  | increases |  |  | 
